From patent US20210063414A1, “METHODS FOR PREVENTING AND/OR TREATING BONE LOSS CONDITIONS BY MODULATING IRISIN” (Dana-Farber Cancer Institute, Inc., priority 2018, published 2021) come the findings set out here.

The target in assay [1] is T1, MLO-Y4 cell surface proteins (Mus musculus, UniProt Q8K221).
T1 construct: endogenous in cells; host or cells: MLO-Y4
T1 sequence (Q8K221 1-341): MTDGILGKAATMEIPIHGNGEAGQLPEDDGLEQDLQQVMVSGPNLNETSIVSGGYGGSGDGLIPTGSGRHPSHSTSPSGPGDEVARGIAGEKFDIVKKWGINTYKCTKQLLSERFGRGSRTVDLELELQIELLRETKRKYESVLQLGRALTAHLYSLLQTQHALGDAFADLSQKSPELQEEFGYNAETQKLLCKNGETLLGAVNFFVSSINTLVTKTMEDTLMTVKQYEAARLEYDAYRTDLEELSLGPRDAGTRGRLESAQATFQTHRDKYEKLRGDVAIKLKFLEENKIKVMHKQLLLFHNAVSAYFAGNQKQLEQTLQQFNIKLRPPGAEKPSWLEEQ
Put plainly: Crosslinking/co-immunoprecipitation/mass spectrometry (TMT quantitative proteomics) to identify irisin receptors. Type of assay: binding. The settings on record: co-precipitated protein Arfip2 (ARFP2_MOUSE). The method in brief:
(§1)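 Relative protein abundance came from 6-plex TMT MS3 quantitation on an Orbitrap Fusion Lumos, after in-gel trypsin digestion of Coomassie-stained SDS-PAGE lanes. Input was a Ni-NTA pulldown (250 mM imidazole elution) of lysates from murine MLO-Y4 cells. These cells were treated on ice with His-tagged irisin or adipsin (10 nM, 20 min) in serum-free medium, then crosslinked with 1.5 mM DTSSP for 30 min.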

Assay [2] has as its target T2, MLO-Y4 cell surface proteins (Mus musculus, UniProt P55292).
T2 construct: endogenous in cells; host or cells: MLO-Y4
T2 sequence (P55292 136-902): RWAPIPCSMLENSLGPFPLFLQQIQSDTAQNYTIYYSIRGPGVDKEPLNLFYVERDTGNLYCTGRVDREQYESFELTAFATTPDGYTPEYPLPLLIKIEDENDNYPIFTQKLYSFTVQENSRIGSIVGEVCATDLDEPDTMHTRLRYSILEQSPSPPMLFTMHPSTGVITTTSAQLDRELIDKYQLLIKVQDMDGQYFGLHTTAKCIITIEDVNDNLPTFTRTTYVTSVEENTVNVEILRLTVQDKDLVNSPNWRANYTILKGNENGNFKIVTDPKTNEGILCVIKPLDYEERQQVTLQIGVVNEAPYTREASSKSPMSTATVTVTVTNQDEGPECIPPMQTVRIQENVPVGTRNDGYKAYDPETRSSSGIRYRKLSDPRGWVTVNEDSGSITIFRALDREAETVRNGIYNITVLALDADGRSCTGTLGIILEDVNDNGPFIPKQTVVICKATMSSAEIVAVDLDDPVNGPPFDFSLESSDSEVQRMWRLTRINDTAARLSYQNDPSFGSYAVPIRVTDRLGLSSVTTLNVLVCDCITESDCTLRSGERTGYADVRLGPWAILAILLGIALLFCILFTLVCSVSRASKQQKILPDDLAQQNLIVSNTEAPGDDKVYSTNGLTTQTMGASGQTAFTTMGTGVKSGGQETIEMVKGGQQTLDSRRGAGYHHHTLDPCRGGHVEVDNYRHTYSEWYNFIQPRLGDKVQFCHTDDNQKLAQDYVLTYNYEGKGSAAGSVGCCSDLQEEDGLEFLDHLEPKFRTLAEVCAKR
Described as above. The note with it: co-precipitated protein Dsc2 (DSC2_MOUSE). Type of assay: binding. The method, boiled down: as §1

For adipsin, the TMT signal-to-noise ratio amounted to 1092.57 in assay [1] and 93.7977 in assay [2].
